Experimental data: publication PMC3289903

Target: recombinant Tp0956 (non-lipidated, residues 2-302) (Treponema pallidum)
Assay: AUC

Sequence of recombinant Tp0956 (non-lipidated, residues 2-302) (Treponema pallidum) (O83922 23-323 limits assumed): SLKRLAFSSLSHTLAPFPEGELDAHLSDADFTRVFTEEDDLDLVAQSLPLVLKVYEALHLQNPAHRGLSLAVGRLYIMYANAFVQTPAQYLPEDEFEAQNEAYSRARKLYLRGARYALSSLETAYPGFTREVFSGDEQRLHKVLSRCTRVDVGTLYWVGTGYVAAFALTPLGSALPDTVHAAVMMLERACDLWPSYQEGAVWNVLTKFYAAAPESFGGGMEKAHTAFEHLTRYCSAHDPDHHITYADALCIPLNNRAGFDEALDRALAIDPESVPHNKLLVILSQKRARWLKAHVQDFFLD

Kd(1), first binding event (macroscopic): 60 nM
cooperativity factor α2 (second binding event): 1.5
cooperativity factor α3 (third binding event): 0.34
Substance: recombinant Tp0957 (non-lipidated, residues 7-328) (natural protein)
